# Results as given in patent US20200247886A1.
# Biological target: human CD47 expressed on cells (CD47 expressing CHO cells, Jurkat, HL60, DLD1, Raji) (human) (UniProt Q08722)
# Experiment: flow cytometry on human red blood cells, donor 2, MFI; EC50 (nM) table beside the legend; control whose curve stays low
substance,measurement,value
IgG (antibody),EC50,0.08 nM
